Experimental data published in US20180344844A1 (SCHOLAR ROCK, published 2018).
Like-named read-outs stand apart in the source and are kept apart here. One block for each binder: values may come before it.

Columns and labels:
[1] = target: T1, proGDF8 (mouse) (mouse, UniProt O08689 25-376); assay: cell-based or functional assay
[2] = target: T2, proGDF8 (human) (human, UniProt O14793 24-375); assay: cell-based or functional assay
[3] = target: T1, proGDF8 (mouse); assay: cell-based or functional assay; remark: listed apart in the source
[4] = target: T3, Mature Activin A (UniProt P08476 311-426); assay: ForteBio Octet BLI; antigen on the tip (direct amine coupling), Ab1 in solution
T3 construct: mature; also called Activin A growth factor
T3 sequence (looked up): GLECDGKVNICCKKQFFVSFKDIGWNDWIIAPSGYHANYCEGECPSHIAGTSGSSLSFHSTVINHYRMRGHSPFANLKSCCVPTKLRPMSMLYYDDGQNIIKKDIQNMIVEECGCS

[5] = target: T4, BMP 9 (UniProt Q9UK05 320-429, limits assumed); assay: as above
T4 construct: mature
T4 sequence (looked up): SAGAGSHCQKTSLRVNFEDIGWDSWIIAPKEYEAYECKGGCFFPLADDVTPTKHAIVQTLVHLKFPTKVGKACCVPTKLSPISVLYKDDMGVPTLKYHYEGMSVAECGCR

[6] = target: T5, BMP10 (UniProt O95393 317-424, limits assumed); assay: as above
T5 construct: mature
T5 sequence (looked up): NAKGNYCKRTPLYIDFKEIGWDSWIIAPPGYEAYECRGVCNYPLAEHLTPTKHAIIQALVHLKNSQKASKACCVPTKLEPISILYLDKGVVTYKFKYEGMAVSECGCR

[7] = target: T6, Mature TGFB1 (UniProt P01137 279-390); assay: as above
T6 construct: mature; also called mature TGFβ1

[8] = target: T7, Mature GDF8 (UniProt O14793 267-375, limits assumed); assay: as above
T7 construct: mature; Amine-coupled to the biosensor tips; also called mature myostatin; mature growth factor of Myostatin

[9] = target: T8, Mature GDF11 (UniProt O95390 299-407, limits assumed); assay: as above
T8 construct: mature; also called GDF11 mature growth factor

[10] = target: T9, Pro Activin A (human, UniProt P08476 21-426); assay: ForteBio Octet BLI; biotinylated antigen on streptavidin tip, Ab1 in solution
T9 construct: domain: pro form (prodomain plus growth factor domain)
T9 sequence (looked up): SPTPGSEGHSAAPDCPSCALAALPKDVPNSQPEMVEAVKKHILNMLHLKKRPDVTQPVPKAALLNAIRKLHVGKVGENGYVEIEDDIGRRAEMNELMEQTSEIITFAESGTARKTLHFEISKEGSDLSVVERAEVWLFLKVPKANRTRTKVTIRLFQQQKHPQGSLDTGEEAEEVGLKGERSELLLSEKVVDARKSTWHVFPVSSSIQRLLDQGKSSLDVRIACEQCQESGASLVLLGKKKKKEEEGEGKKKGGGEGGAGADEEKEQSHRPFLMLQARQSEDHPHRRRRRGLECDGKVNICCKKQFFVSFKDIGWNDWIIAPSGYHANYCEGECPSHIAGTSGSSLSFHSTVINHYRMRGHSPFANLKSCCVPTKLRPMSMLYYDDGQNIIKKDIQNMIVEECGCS

[11] = target: T10, proGDF11 (human) (human, UniProt O95390 25-407); assay: as above
T10 construct: domain: proGDF11 (prodomain plus growth factor domain)

[12] = target: T10, proGDF11 (human); assay: ForteBio BLI; biotinylated proGDF11 on streptavidin tip, 30 µg/mL antibody, response after 5 minutes of association relative to proGDF8
Protocol: In this assay, biotinylated proGDF11 or biotinylated proMyostatin was immobilized on a ForteBio BLI streptavidin-coated sensor tip, which was applied to wells containing 30 μg/mL of antibody. Interactions of the analyte with the protein immobilized on the chip are measured by the magnitude of the response of the biosensor chip. The biosensor response after 5 minutes of association (a saturating signal for proGDF8) was compared between the two antigens, and expressed as the percent response for GDF8 binding.

[13] = target: T3, Mature Activin A; assay: ForteBio Octet BLI; antigen on biosensor, antibody in solution
Protocol: (§1) Binding affinities of antibody candidates were determined using the FortéBio Octet QKe dip and read label free assay system utilizing bio-layer interferometry. Antigens were immobilized to biosensors (streptavidin-coated biosensors for proGDF8, proGDF11 and proActivin; direct amine coupling for all others) in each experiment and the antibodies/constructs were presented in solution at high concentration (50 μg/mL) to measure binding interactions.
(§2) Binding affinities of antibodies were determined using the FortéBio Octet QKe dip and read label free assay system utilizing bio-layer interferometry. Human proGDF8, latent GDF8, proGDF11 and proActivin were biotinylated and immobilized to streptavidin-coated biosensors (FortéBio). Mature growth factors were immobilized via direct amine coupling to amine reactive tips according to manufacturer's instructions (FortéBio). In each experiment, the antibodies/constructs were presented in solution at a single high concentration (50 μg/mL) to measure binding interactions.

[14] = target: T9, Pro Activin A; assay: as above
Protocol: as §1, §2

[15] = target: T4, BMP 9; assay: as above
Protocol: as §1, §2

[16] = target: T5, BMP10; assay: as above
Protocol: as §1, §2

[17] = target: T6, Mature TGFB1; assay: as above
Protocol: as §1, §2

[18] = target: T7, Mature GDF8; assay: as above
Protocol: as §1, §2

[19] = target: T8, Mature GDF11; assay: as above
Protocol: as §1, §2

[20] = target: T1, proGDF8 (mouse); assay: cell-based or functional assay; remark: listed apart in the source
[21] = target: T11, latent GDF8 (human) (human, UniProt O14793 24-266; O14793 267-375); assay: Octet binding kinetics to pro- and latent-Myostatin, compared with parental Ab1
T11 construct: proGDF8 cleaved by a proprotein convertase; the split after 243 is inferred from that; also called human latent Myostatin; Human latent GDF8

[22] = target: T2, proGDF8 (human); assay: as above

B1: Ab9 (antibody, V domains shown)
VH: QVQLVQSGAEVKKPGSSVKVSCKASGGTFSSYAISWVRQAPGQGLEWMGGIIPIFGTANYAQKFQGRVTITADESTSTAYMELSSLRSEDTAVYYCANHGLMDDSSGYYLSNAFDIWGQGTMVTVSS
VL: not shown
- Murine proGDF8 IC50 (µM) Reporter assay [1]: 19.9 µM
- Human proGDF8 IC50 (µM) Reporter assay [2]: 12.2 µM

B2: Ab1 parental antibody, IgG4 (S228P), lambda (antibody, V domains shown)
VH: QIQLVQSGGGVVQPGRSLRLSCAASGFTFSSYGMHWVRQAPGKGLEWVAVISYDGSNKYYADSVKGRFTISRDNSKNTLYLQMNSLRAEDTAVYYCARDLLVRFLEWSHYYGMDVWGQGTTVTVSS
VL: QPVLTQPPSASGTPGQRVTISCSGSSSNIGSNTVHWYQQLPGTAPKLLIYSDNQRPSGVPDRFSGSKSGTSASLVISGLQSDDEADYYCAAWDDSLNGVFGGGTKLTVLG
notes: also called parental Ab1 IgG4; 24H4 (WT); copies: 2 + 2
- Activity Assay - 293T cells EC50 [3]: 839 nM
- binding result [4]: no binding (tested: 50 ug/mL)
- binding result [5]: no binding (tested: 50 ug/mL)
- binding result [6]: no binding (tested: 50 ug/mL)
- binding result [7]: no binding (tested: 50 ug/mL)
- binding result [8]: no binding (tested: 50 ug/mL)
- binding result [9]: no binding (tested: 50 ug/mL)
- binding result [10]: no binding (tested: 50 ug/mL)
- binding result [11]: no binding (tested: 50 ug/mL)
- GDF11 response, expressed as a percentage of GDF8 response [12]: 1.33%

B3: Ab4 (Ab3 with germline framework residues), IgG4 (S228P), lambda (antibody, V domains shown)
VH: QVQLVESGGGVVQPGRSLRLSCAASGFAFSSYGMHWVRQAPGKGLEWVAVISYDGSIKYYADSVKGRFTISRDNSKNTLYLQMNSLRAEDTAVYYCARDLLVRFLEWSHKYGMDVWGQGTTVTVSS
VL: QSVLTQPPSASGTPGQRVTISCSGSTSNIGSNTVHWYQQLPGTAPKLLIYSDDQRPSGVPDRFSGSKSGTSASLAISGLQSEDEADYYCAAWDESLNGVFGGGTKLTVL
notes: human IgG4/lambda framework with S228P; also called Ab4 germline
- binding result [13]: no binding (tested: 50 µg/mL)
- binding result [14]: no binding (tested: 50 µg/mL)
- binding result [15]: no binding (tested: 50 µg/mL)
- binding result [16]: no binding (tested: 50 µg/mL)
- binding result [17]: no binding (tested: 50 µg/mL)
- binding result [18]: no binding (tested: 50 µg/mL)
- binding result [19]: no binding (tested: 50 µg/mL)
- Activity Assay - 293T cells EC50 [20]: 447 nM
- GDF11 response, expressed as a percentage of GDF8 response [12]: 2.51%

B7: Ab10 (antibody, V domains shown)
VH: EVQLVQSGGGVVQSGRSLRLSCVASGFSFSNYGMHWVRQAPGKGLEWLAFIWYDGSNKWYADSVKGRFTISRDNSKNALYLQMNSLRAEDTAVYYCARDRYSSSWGGGFDYWGQGTVLTVSS
VL: NFMLTQPHSVSESPGRTVTIPCSGRGGSIASDSVQWYQQRPGSAPTTIIYEDNQRPSGVPDRFSGSVDSSSNSASLTISGLRTEDEADYYCQSYDASSLWVFGGKTKLTVLG
- Human proGDF8 IC50 (µM) Reporter assay [2]: 0.772 µM

B8: Ab7 (antibody, V domains shown)
VH: QVQLQQSGAEVKKPGASVKVSCKASGYTFTSYYMHWVRQAPGQGLEWMGIINPSGGSTSYAQKFQGRVTMTRDTSTSTVYMELSSLRSEDTAVYYCARESLIRFLEDPQQGGMDVWGQGTTVTVSS
VL: QSALTQPASVSGSPGQSLTISCTGTSSDIGGYNYVSWYQQHPGKAPKLIIYDVTDRPSGVSGRFSGSKSGNTASLTISGLQTEDEAEYFCNSWTRSNNYIFGGGTKLTVLG
- Murine proGDF8 IC50 (µM) Reporter assay [1]: 1.68 µM
- Human proGDF8 IC50 (µM) Reporter assay [2]: 0.983 µM

B9: Ab8 (antibody, V domains shown)
VH: QIQLVQSGAEVKKPGASVKVSCKASGYTFTSYGISWVRQAPGQGLEWMGWISAYNGNTNYAQKLQGRVTMTTDTSTSTAYMELSSLRSEDTAVYYCARVGFYDYVWGSYPYDAFDIWGQGTMVTVSS
VL: EIVMTQSPGTLSLSPGERATLSCRASQSVSSNYLAWYQQKPGQAPRLLIYDASNRATGIPARFSGSGSGTDFTLTISSLEPEDFALYYCQQYGTSPLTFGGGTKLEIKR
- Murine proGDF8 IC50 (µM) Reporter assay [1]: 139 µM
- Human proGDF8 IC50 (µM) Reporter assay [2]: 6.04 µM

Other lines, results leading:

- binding result [21]: binds
- binding result [22]: binds
B4: Ab3 (affinity optimized variant of Ab1, parental frameworks) (antibody, IgG4, V domains shown)
VH: QIQLVQSGGGVVQPGRSLRLSCAASGFAFSSYGMHWVRQAPGKGLEWVAVISYDGSIKYYADSVKGRFTISRDNSKNTLYLQMNSLRAEDTAVYYCARDLLVRFLEWSHKYGMDVWGQGTTVTVSS
VL: QPVLTQPPSASGTPGQRVTISCSGSTSNIGSNTVHWYQQLPGTAPKLLIYSDDQRPSGVPDRFSGSKSGTSASLVISGLQSDDEADYYCAAWDESLNGVFGGGTKLTVLG
notes: also called Ab3 parental; copies: 2 + 2

- binding result [13]: no binding (tested: 50 µg/mL)
- binding result [14]: no binding (tested: 50 µg/mL)
- binding result [15]: no binding (tested: 50 µg/mL)
- binding result [16]: no binding (tested: 50 µg/mL)
- binding result [17]: no binding (tested: 50 µg/mL)
- binding result [18]: no binding (tested: 50 µg/mL)
- binding result [19]: no binding (tested: 50 µg/mL)
- GDF11 response, expressed as a percentage of GDF8 response [12]: 2.07%
B5: Ab6 (Ab5 with germline framework residues), IgG4 (S228P), lambda (antibody, V domains shown)
VH: QVQLVESGGGVVQPGRSLRLSCAASGFAFSSYGMHWVRQAPGKGLEWVAVISYDGNNKYYADSVKGRFTISRDNSKNTLYLQMNSLRAEDTAVYYCARDLLVRFLEWSHKYGMDVWGQGTTVTVSS
VL: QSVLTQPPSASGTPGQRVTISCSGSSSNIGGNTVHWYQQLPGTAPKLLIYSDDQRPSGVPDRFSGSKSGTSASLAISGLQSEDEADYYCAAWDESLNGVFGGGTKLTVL
notes: human IgG4/lambda framework with S228P; also called Ab6 germline

- binding result [21]: binds
- binding result [22]: binds
B6: Ab5 (affinity optimized variant of Ab1, parental frameworks) (antibody, IgG4, V domains shown)
VH: QIQLVQSGGGVVQPGRSLRLSCAASGFAFSSYGMHWVRQAPGKGLEWVAVISYDGNNKYYADSVKGRFTISRDNSKNTLYLQMNSLRAEDTAVYYCARDLLVRFLEWSHKYGMDVWGQGTTVTVSS
VL: QPVLTQPPSASGTPGQRVTISCSGSSSNIGGNTVHWYQQLPGTAPKLLIYSDDQRPSGVPDRFSGSKSGTSASLVISGLQSDDEADYYCAAWDESLNGVFGGGTKLTVLG
notes: also called Ab5 parental; copies: 2 + 2
